Test: yeast display, Sf9 membrane polyspecificity reagent, FACS + sequencing; frameworks hold sequencing errors
Method in brief: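 In a synthetic yeast display library (Saccharomyces cerevisiae BJ5465), nanobody expression was induced with galactose for 36–48 hours. FACS gates were set low and high (top ~1%) using anti-HA fluorescence for expression and streptavidin fluorescence for binding of the Sf9 membrane reagent. Each polyreactivity label is drawn from the gate of origin.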

Row | Sequence | polyreactivity (PSR sort gate)
1 | QVQLVESGGGLVQAGGSLRLSCAASGSTFPRNAMGWYRQAPGKERELVATISTSGGSTYYADSVKGRFTISRDNAKNTVYLQMNSLKPEDTPVYYCAAVFWFRSLSGYIYDYWGQGTQVSVSS | low polyreactivity
2 | QVQLVESGGGLVQAGGSLRLSCAASGYIFAYYAMGWYRQEPGKERELVADIRGRGGSTYYADSVKGRFTISRDNAKNTVYLQMNSLKTEDTAVYYCARRSPNPYSIYYYWGQGTQVTVSS | high polyreactivity
3 | QVQLVESGGGLVQAGGSLRLSCAASGRTFPCYAMGWYRQAPGKEREFVAAITASGDSTYYADSVKGRFTISRDNAKNTVYLQMNSLKPEDTAVYYCAADLPVWYVTRYDYWGQGTQVTVSS | low polyreactivity
4 | QVQLEESGGVLVQAGGSLRLSCAASGSIFDAYAMGWYRQAPGKDRELVADITVSAGRTYYADSVNGRFTISRDNAKNTVYLQMNSLKPEDTAVYYCAADSIVGDGYWSYYWGQGTQVTVSS | low polyreactivity
5 | QVQLVESGGGLVQAGGSLSLSCDASGRIFVVKAMGWYRQAPGKERELVAAITRRGGSTYADSVKGRFTISRDNAKNTVYLQMNSLKPEDTAVYYCNAESYYGIFSYKYDYWGQGTQVTVSS | high polyreactivity
6 | QVQLVESGGGLVQAGGSLRLSCAASGRIFVGYAMGWYRQAPGKERELVAAINRSGSSTYYADSVKGRFTISRDNAKNTVYLQMNSLKPEDSAVYYCNARAPSYYRYRASSAYDYWGQGTQVTVSS | high polyreactivity
7 | QVQLVESGGGLVQAGGSLRLSCAASGRIFQRYTMGWYRQAPGKEREFVAAITYSGGSTHYADSVKGRFTISRDNAKNTVYLQMNSLKPEDTAVYYCNADRYYGRGYGYWGQGTQVTVSS | low polyreactivity
8 | QVQLVESRGGLVQAGGSLRLSCAASGRIFSIYAMGWYRQAPGKERELVAAITNGGGSTYYADSVKGRFTISRDNAKNTVYLPMISLKPEDTAVYYCAARSPGGKNTKYYWGQGTQVTVSS | high polyreactivity
9 | QVQLVESGGGLVQAGGSLRLSCAASGFIFPPYTMGWYRQAPGKERELVAAINSGGSTYYADSVKGRFTISRDNAKNTVYLPMNSLKPEDTAVYYCAADTDRALAHFDYWGQGTQVTVSS | low polyreactivity
10 | QVQLVESGGRLDQARGSLRLSCAASGYNFQPYAMGWYRLAPGKERDLVAAISWRGGSTYYADSVKGRFTISRDNAKNTVYLQMTSLKPEDTAVYYCAKDYYYGLEHYGYWGQGTQVTVSS | low polyreactivity
11 | QVQLVESGGGLVQAGGSLRLSCAASGIIFIGNAMGWYRQAPGKERELVAAISRRGGGTYYADSVKGRFTISRDNAKNTVYLQMNSLKPEDTAVYYCNAEITVNDDDYWGQGTQVTVSS | high polyreactivity
12 | QVQLVESGGGLVQAGGSLRIICAASGSIFTYNSMGWYREAPGKERELVAAISASGGRTYYADSVKGRFTISRDNAKNTVYLQMNSLKPEDTAVYYCNVLHRSDSGYYYRYDYWGQGTQVTVSS | high polyreactivity
13 | QVQLVESGGGLVQAGGSLRLSCAASGSIYGLYAMGWSREAPGKEREVVATITESGGSTYYADSVKGRFTISRDNAKNTVYLQMKSLKPEDTAVYYCHSDEVSAQYDDWGQGTQVTVSS | low polyreactivity
14 | QVQLVESGGGLVQAGGSLRLSCAASGRIFYYNAMGWYRQAPGKERELVASITWSGARTYYADSVKGRFTISRDNAKNTVYLQMNSLKPEDTAVYYCNAATSYYTYTYGYWGQGTQVTVSS | high polyreactivity
15 | QVQLVESGVGLVQAGGSLRLSCAASGSTFANNAMGWYRQAPGKERELVAAISWSGGSTYYADSVKGRFTISRDNAKNTVYLQMNSLKPEDTAVYYCAADSPRYGGYGYWGQGTQVTLSS | low polyreactivity
16 | QVQLVESGVGLVQAGGSLRLSCAASGRTFEPNAMGWYRHAPGKERELVAGITWSGGSTYYADSVKGRFTISRDNAKNTVYLQMNSLKPEDTAVYYCNAPITWKRSHYGYWGQGTQVTVSS | low polyreactivity
17 | QVQLVESGGGLVQAGGSLRLSCAASGSTFWPYAMGWYRQAPGKERELVAAITSSDVNTNYADSVKGRFTISRDNAKNTVYLQMNSLKPEDTAVYYCAADQYQYDPTYGYDYWGQGTQVTVSS | low polyreactivity
18 | QVQLVESGGGLVQAGGSLRLSCAASGLTFHSYAMGWYRQAPGKERELVAAINYSGGRTDYADSVKGRFTISRDNALKSVYLQMNSLQPADTAVYFCAAQRASAYYCGQGTQVTVSS | high polyreactivity
19 | QVQLVESGGGLVQAGGSLRLSCAASGRTFSFNGMGWYRQAPGKERELVAAISRRGTSTYYADSVKGRFTISRDNAKNTVYLQMNSLKPEDTAVYYCAARSTYTRREYDYWGQGTQVTVSS | high polyreactivity
20 | QVQLVESGGGLVQAGGSLRLSCAASGYIFKYNTMGWYRQAPGKERELVAAISTGGNTYYADSVKGRFTISRDNAKNTVYLQMNSLKPEDTAVYYCAALSGAHEHFVEYDYWGQGTQVTVSS | low polyreactivity
21 | QVQLVESGGGLVQAVGSLSLSCAASGLTLGSYAKGAYRQAPGKERELVAAISRRSGRTYYADSVKGLFTISRDNAKNTVYLQINSLKPEDTAGFYCNRGYTAQVYTEFDYWGQGTQVTVSS | low polyreactivity
22 | QVQLVESGGGLVQAGGSLRLSCAASGRIFWPYAMGWYRQAPGKERELVAAITSGGSTYYADSVKGRFTISRDNAKNTVYLQMNSLKPEDTAVYYCNAKLRRHYDHLYDYWGQGTQVTVSS | low polyreactivity

Row | Sequence | polyreactivity (PSR sort gate)
23 | QVQLVESGGGLVQAGGSLRLSCVASGFNFRGNAMGLYRQAPGKERELVATISSGGNTYYADSVKGRFTISRDNAKNTVYLQMNSLKPEDTAVYYCNASDGLPTKLNVYVEFDYWGQGTQVTVSS | low polyreactivity
24 | QVQLVESGGGLVQAGGSLRLSCAASGFTFHYYVMGWYRQAPGKERELVAAINAGGVSTYYADSVKGRFTISRDNAKNTVYLQMNSLKPEDTAVYYCNARVRVRLGRNWSSYYYWGQGTQVTVSS | high polyreactivity
25 | QVQLVESGGGLVQAGGSLRLSCAASGSIFRRYAMGGYRQAPGKERELVAAITSGDTTKYADSVKGRFTISRDNAKNTVYLQMNSLKPEDTAVYYCNKKGWPRFVHGFLRRDDYWGQGTQVTVSS | low polyreactivity
26 | QVQIVESGGGLVQAGGSLRLTCAASGFTLPIYAMGWYRQAPGKEREFVAAITASGDNTYYADSVKGRFTISRDNAKNTVYLQMNSLKPEDTAVYYCAAAHWWIVGYDYWGQGTQVTVSS | low polyreactivity
27 | QVQLVESCGGLVQAGGSLRLSCDASGITFNYNAMGWYRQAPGKERELVARITWSGTRTYYADSVKGRFTISRDNAKNTVYLQMNSLKPEDTAVYYCNAGPYARYYWGQGTQVTVSS | high polyreactivity
28 | QVQLVESGGSLVQAGGSLRLSCAASGSTFDYYAMGWYRQAPGKARELHAAIDWSGDSTYYADSVKGRFTISRDNAKNTVYLQMNSLKREDSAVYYCPADLDSRGTYGRYEYWGQGTQVTVSS | low polyreactivity
29 | QVQLVESGGGLVQAGGSLRLSCAASGFIFRVYAMGWYRQAPGKERELVAAITRAGNTYYADSVKGRFTISRDNAKNTVYLQMNSLKPEDTAVYYCNNYHYWASPMNYWGQGTQVTVSS | high polyreactivity
30 | QVQLEESGGGLVQAGGSHRLICAASGSTFEYYAMGWYRQAPGKERELVAAINGIGGSTTYADSVKGRFTISRDTAKYTVYLQMNSLKPEDTAVYYCNADVARSKSQASAYDYWGQGTQVNVSS | low polyreactivity
31 | QVQLVESGGGLVQAGGSLRLSCAASGRIFTGNAMGWYRQAPGKERELVASITYNGGRTYYADSVKGRFTISRDKAKNTVYLPMNRLKPEDTAVYYCNAGDYGFGYEYWGQGTQVTVSS | low polyreactivity
32 | QVQLVESGGGLVQAGGSLRLSCAASGSTFYYNAMVWYRQAPGKEREFVASISWRGGRTYYADSVKGRFTISRDNAKNTVYLQMNSLKQEDTAVYYCAKGYLALGQPDDYWGQGTQVTVSS | high polyreactivity
33 | QVQLVESGGGLVQAGGSLRLSCAASGRTFYRYAMGWYRQAPGKERELVAVITSGSRTKYADSVKGRFTISRDNAKNTVYLQMNSLKPEDTAVYYCAARGLALEGKSSGEYWGQGTQVTVSS | high polyreactivity
34 | QVQHVESGGRLVQAGGSLRLICAASGRTFAPYAMGWYRQAPGKVRELVARITWSGTDTYYADSVKGRFTISRDNAKNTVYLQMNSLKPEDTAVYYCAADARYSRRYYYWGEGTQVTVSS | low polyreactivity
35 | QVQLVESGGGLVQAGGSLRLTCAASGSIFNRYSMGWYRQATGKERELVAVIRWRDGSTYYADSVKGRFTISRDNEKNTVYLQMNSLKPEDTAVYYCAAVYWGEEYEYWGQGTQVTVSS | low polyreactivity
36 | QVQLVESGGGLVQAGGSLRLSCAASGLTLRNYAMGWYRQAPGKERELVARITTGGSTHYADSVKGRFTISRDNAKNTVSLQMHSLKPEDTAVYYCNTGPYTFVSPEYYYWGQGTQVTVSS | low polyreactivity
37 | QVQLVESGGGLVQAGCSLRLTCAASGFTFYKYAMGWYRQAPGKERELVAAISRRGTSTYYADAVKGRFTISRDNAKNTVYLQMNSLKPEDTAVYYCNRDVSLSAFDYWGQGTQVTVSS | high polyreactivity
38 | QVQLVESGGGLVQAGGTLRLSCAASGSTISYYTMGWYRQAPGKERELVAAISRSGTRTYYADSVKGRFTISRDNPKNTVYLQMNSLKPEDTAFFYCAARSPFYSYTPGYEYWGQGTQVTVSS | high polyreactivity
39 | QVQLVESGGGLVQAGGSLRLSCAASGSTFLVYAMGWYRQAPGKERELVARINWRGSSTYADSVKGRFTISRDNAKNTVYLQMNSLKPEDTAVYYCNADSYRYYHPTYIYDYWGQGTQVTVSS | low polyreactivity
40 | QVQLVESGGGLVQAGGSLRLSCAASGSTFYSNAMGWYRQAPGKERELVAGISGSGGSSYYADSVKGRFTFSRDNAKNTVKLQMNSLKPEDTAVYYCNARKTRSYFRFDSWGQGTQVTVSS | low polyreactivity
41 | QVQLVESGGGLVQAGGSLRLSCAASGSTFKWYTMGWYRQAPGNEREFVAAISSSGGRTYYADSVKGRFTISRDNAKNTDYLQMNCLKPEDTAVYFCAAGYLYQFRAATFGYWGQGTQVTVSS | high polyreactivity
42 | QVQLVESGGGLVQAGGSLRLSCAASGRIFNYYAMGWYRQAPGKEMELVAVITYSAGRTYYADSVKGRFTISRDNAKNTVYLQMNSLKPEDTAVYYCNADGWVSVSKHYYYWGQGTQVTVSS | low polyreactivity
43 | QVQLVESGGGLVQAGGSLRLSCAASGSTFRGYAMGWYRQAPGKERELVAAITFRGGSTYYADSVKGRFTISRDNAKNTVFLQMNSLKPEDTEVYYCYVRIYGYDYWGQGTQVSVSS | high polyreactivity
